Results published in paper PMC7094161, “An Alternative Pin1 Binding and Isomerization Site in the N-Terminus Domain of PSD-95” (Frontiers in Molecular Neuroscience, 2020).

Experiments:
Assay in all cases: FRET or BRET; FRET/FLIM: EGFP fluorescence lifetime of EKAR constructs (WW domain and peptide on one chain) in fixed, mounted COS cells; serum in the medium
Details in all cases: partners not purified
[1] = molecular target: T1, PSD-95 S35 peptide of the EKAR construct (UniProt P31016 30-40)
T1 construct: PSD-95 peptide around S35 put in place of the CDC25C peptide; On one chain with m14 (see its note); also called EKAR S35; source: COS cells, transfected, in cells
T1 peptide (looked up): PNQANSPPVIV

[2] = molecular target: T2, PSD-95 S25 peptide of the EKAR construct (UniProt P31016 20-30)
T2 construct: PSD-95 peptide around S25 put in place of the CDC25C peptide; On one chain with m14 (see its note); also called EKAR S25; source: COS cells, transfected, in cells
T2 peptide (looked up): PPLEHSPAHLP

[3] = molecular target: T3, PSD-95 T19 peptide of the EKAR construct (UniProt P31016 14-24)
T3 construct: PSD-95 peptide around T19 put in place of the CDC25C peptide; 11 residues, the text says 10-mer; On one chain with m14 (see its note); also called EKAR T19; EKAR_(cyto)T19; source: COS cells, transfected, in cells
T3 peptide (looked up): YQDEDTPPLEH

B1: Pin1 WW domain of the EKAR construct (domain or fragment, UniProt Q13526 5-39, looked up)
chain: EKLPPGWEKRMSRSSGRVYYFNHITNASQWERPSG
notes: Pin1 WW domain as in the EKAR construct (Harvey et al., 2008); source: COS cells, transfected, in cells
B1 was tested, and the EGFP fluorescence lifetime [1] was 1.81 ns, the EGFP fluorescence lifetime [2] was 1.69 ns and the EGFP fluorescence lifetime [3] was 1.72 ns.
